According to patent US20220339270A1 (published 2022):

B1: IPN002 scFv-HA expressed from TAU_ITR142 (CAG, HL, (G4S)6) (scFv)
scFv: EVHLVESGGALVKPGGSLKLSCAASGFSFSKYGMSWVRQTPDKRLEWVATISSSGSRTYYPDSVKGQFTISRDNAKNTLYLQMSSLKSEDTAMYYCSISWDGAMDYWGQGTSVTVSSGGGGSGGGGSGGGGSGGGGSGGGGSGGGGSDVLMTQTPLSLPVSLGDQASISCKSSQSIVHSNGNTYLEWYLQKPGQSPKLLVYKVSNRFSGVPDRFSGSGSGTDFTLKISRVEAEDLGTYYCFQGSLVPWAFGGGTKLEIK
notes: also called CAG-IPN0011-HL-G4S6
B2: IPN002 scFv-HA expressed from TAU_ITR141 (CAG, HL, (G4S)5) (scFv)
scFv: EVHLVESGGALVKPGGSLKLSCAASGFSFSKYGMSWVRQTPDKRLEWVATISSSGSRTYYPDSVKGQFTISRDNAKNTLYLQMSSLKSEDTAMYYCSISWDGAMDYWGQGTSVTVSSGGGGSGGGGSGGGGSGGGGSGGGGSDVLMTQTPLSLPVSLGDQASISCKSSQSIVHSNGNTYLEWYLQKPGQSPKLLVYKVSNRFSGVPDRFSGSGSGTDFTLKISRVEAEDLGTYYCFQGSLVPWAFGGGTKLEIK
notes: also called CAG-IPN0010-HL-G4S5
B3: IPN002 scFv-HA expressed from TAU_ITR154 (CAG, LH, (G4S)5) (scFv)
scFv: DVLMTQTPLSLPVSLGDQASISCKSSQSIVHSNGNTYLEWYLQKPGQSPKLLVYKVSNRFSGVPDRFSGSGSGTDFTLKISRVEAEDLGTYYCFQGSLVPWAFGGGTKLEIKGGGGSGGGGSGGGGSGGGGSGGGGSEVHLVESGGALVKPGGSLKLSCAASGFSFSKYGMSWVRQTPDKRLEWVATISSSGSRTYYPDSVKGQFTISRDNAKNTLYLQMSSLKSEDTAMYYCSISWDGAMDYWGQGTSVTVSS
notes: also called CAG-IPN007-LH-G4S5
B4: IPN002 F(ab')2_hIgG3_3hinge expressed from TAU_ITR122 (CBA, hGbin, HF.T2AL) (F(ab')2)
VH: EVHLVESGGALVKPGGSLKLSCAASGFSFSKYGMSWVRQTPDKRLEWVATISSSGSRTYYPDSVKGQFTISRDNAKNTLYLQMSSLKSEDTAMYYCSISWDGAMDYWGQGTSVTVSS
VL: DVLMTQTPLSLPVSLGDQASISCKSSQSIVHSNGNTYLEWYLQKPGQSPKLLVYKVSNRFSGVPDRFSGSGSGTDFTLKISRVEAEDLGTYYCFQGSLVPWAFGGGTKLEIK
B5: IPN002 scFv-HA expressed from TAU_ITR150 (CAG, LH, G4S) (scFv)
scFv: DVLMTQTPLSLPVSLGDQASISCKSSQSIVHSNGNTYLEWYLQKPGQSPKLLVYKVSNRFSGVPDRFSGSGSGTDFTLKISRVEAEDLGTYYCFQGSLVPWAFGGGTKLEIKGGGGSEVHLVESGGALVKPGGSLKLSCAASGFSFSKYGMSWVRQTPDKRLEWVATISSSGSRTYYPDSVKGQFTISRDNAKNTLYLQMSSLKSEDTAMYYCSISWDGAMDYWGQGTSVTVSS
notes: also called CAG-IPN004-LH-G4S; L(G4S)H
B6: IPN002 scFv-HA expressed from TAU_ITR137 (CAG, HL, G4S) (scFv)
scFv: EVHLVESGGALVKPGGSLKLSCAASGFSFSKYGMSWVRQTPDKRLEWVATISSSGSRTYYPDSVKGQFTISRDNAKNTLYLQMSSLKSEDTAMYYCSISWDGAMDYWGQGTSVTVSSGGGGSDVLMTQTPLSLPVSLGDQASISCKSSQSIVHSNGNTYLEWYLQKPGQSPKLLVYKVSNRFSGVPDRFSGSGSGTDFTLKISRVEAEDLGTYYCFQGSLVPWAFGGGTKLEIK
notes: also called CAG-IPN002-HL-G4S; H(G4S)L
B7: IPN002 scFv-HA expressed from TAU_ITR152 (CAG, LH, (G4S)3) (scFv)
scFv: DVLMTQTPLSLPVSLGDQASISCKSSQSIVHSNGNTYLEWYLQKPGQSPKLLVYKVSNRFSGVPDRFSGSGSGTDFTLKISRVEAEDLGTYYCFQGSLVPWAFGGGTKLEIKGGGGSGGGGSGGGGSEVHLVESGGALVKPGGSLKLSCAASGFSFSKYGMSWVRQTPDKRLEWVATISSSGSRTYYPDSVKGQFTISRDNAKNTLYLQMSSLKSEDTAMYYCSISWDGAMDYWGQGTSVTVSS
notes: also called CAG-IPN005-LH-G4S3; L(G4S)3H
B8: IPN002 scFv-HA expressed from TAU_ITR143 (CAG, HL, (G4S)8) (scFv)
scFv: EVHLVESGGALVKPGGSLKLSCAASGFSFSKYGMSWVRQTPDKRLEWVATISSSGSRTYYPDSVKGQFTISRDNAKNTLYLQMSSLKSEDTAMYYCSISWDGAMDYWGQGTSVTVSSGGGGSGGGGSGGGGSGGGGSGGGGSGGGGSGGGGSGGGGSDVLMTQTPLSLPVSLGDQASISCKSSQSIVHSNGNTYLEWYLQKPGQSPKLLVYKVSNRFSGVPDRFSGSGSGTDFTLKISRVEAEDLGTYYCFQGSLVPWAFGGGTKLEIK
notes: also called CAG-IPN0012-HL-G4S8
B9: IPN002 scFv-HA expressed from TAU_ITR155 (CAG, LH, (G4S)6) (scFv)
scFv: DVLMTQTPLSLPVSLGDQASISCKSSQSIVHSNGNTYLEWYLQKPGQSPKLLVYKVSNRFSGVPDRFSGSGSGTDFTLKISRVEAEDLGTYYCFQGSLVPWAFGGGTKLEIKGGGGSGGGGSGGGGSGGGGSGGGGSGGGGSEVHLVESGGALVKPGGSLKLSCAASGFSFSKYGMSWVRQTPDKRLEWVATISSSGSRTYYPDSVKGQFTISRDNAKNTLYLQMSSLKSEDTAMYYCSISWDGAMDYWGQGTSVTVSS
notes: also called CAG-IPN0014-LH-G4S6
B10: IPN002 scFv-HA expressed from TAU_ITR140 (CAG, HL, (G4S)4) (scFv)
scFv: EVHLVESGGALVKPGGSLKLSCAASGFSFSKYGMSWVRQTPDKRLEWVATISSSGSRTYYPDSVKGQFTISRDNAKNTLYLQMSSLKSEDTAMYYCSISWDGAMDYWGQGTSVTVSSGGGGSGGGGSGGGGSGGGGSDVLMTQTPLSLPVSLGDQASISCKSSQSIVHSNGNTYLEWYLQKPGQSPKLLVYKVSNRFSGVPDRFSGSGSGTDFTLKISRVEAEDLGTYYCFQGSLVPWAFGGGTKLEIK
notes: also called CAG-IPN008-HL-G4S4
B11: IPN002 scFv-HA expressed from TAU_ITR139 (CAG, HL, (G4S)3) (scFv)
scFv: EVHLVESGGALVKPGGSLKLSCAASGFSFSKYGMSWVRQTPDKRLEWVATISSSGSRTYYPDSVKGQFTISRDNAKNTLYLQMSSLKSEDTAMYYCSISWDGAMDYWGQGTSVTVSSGGGGSGGGGSGGGGSDVLMTQTPLSLPVSLGDQASISCKSSQSIVHSNGNTYLEWYLQKPGQSPKLLVYKVSNRFSGVPDRFSGSGSGTDFTLKISRVEAEDLGTYYCFQGSLVPWAFGGGTKLEIK
notes: also called CAG-IPN003-HL-G4S3; H(G4S)3L
B12: IPN002 scFv-HA expressed from TAU_ITR153 (CAG, LH, (G4S)4) (scFv)
scFv: DVLMTQTPLSLPVSLGDQASISCKSSQSIVHSNGNTYLEWYLQKPGQSPKLLVYKVSNRFSGVPDRFSGSGSGTDFTLKISRVEAEDLGTYYCFQGSLVPWAFGGGTKLEIKGGGGSGGGGSGGGGSGGGGSEVHLVESGGALVKPGGSLKLSCAASGFSFSKYGMSWVRQTPDKRLEWVATISSSGSRTYYPDSVKGQFTISRDNAKNTLYLQMSSLKSEDTAMYYCSISWDGAMDYWGQGTSVTVSS
notes: also called CAG-IPN006-LH-G4S4
B13: IPN002 scFv-HA expressed from TAU_ITR151 (CAG, LH, (G4S)2) (scFv)
scFv: DVLMTQTPLSLPVSLGDQASISCKSSQSIVHSNGNTYLEWYLQKPGQSPKLLVYKVSNRFSGVPDRFSGSGSGTDFTLKISRVEAEDLGTYYCFQGSLVPWAFGGGTKLEIKGGGGSGGGGSEVHLVESGGALVKPGGSLKLSCAASGFSFSKYGMSWVRQTPDKRLEWVATISSSGSRTYYPDSVKGQFTISRDNAKNTLYLQMSSLKSEDTAMYYCSISWDGAMDYWGQGTSVTVSS
notes: also called CAG-IPN004-LH-G4S2

Target: T1, wild-type tau (441 amino acids; tau441; NP_005901.2) (human, UniProt P10636 1-758)
T1 construct: Unphosphorylated recombinant tau441 used in the wild-type tau ELISA; also called wt tau441; wtTau
Assay: wild-type tau ELISA, 293 cell supernatant

T1 sequence (P10636 other isoform, or with tags, fused parts or gaps limits assumed): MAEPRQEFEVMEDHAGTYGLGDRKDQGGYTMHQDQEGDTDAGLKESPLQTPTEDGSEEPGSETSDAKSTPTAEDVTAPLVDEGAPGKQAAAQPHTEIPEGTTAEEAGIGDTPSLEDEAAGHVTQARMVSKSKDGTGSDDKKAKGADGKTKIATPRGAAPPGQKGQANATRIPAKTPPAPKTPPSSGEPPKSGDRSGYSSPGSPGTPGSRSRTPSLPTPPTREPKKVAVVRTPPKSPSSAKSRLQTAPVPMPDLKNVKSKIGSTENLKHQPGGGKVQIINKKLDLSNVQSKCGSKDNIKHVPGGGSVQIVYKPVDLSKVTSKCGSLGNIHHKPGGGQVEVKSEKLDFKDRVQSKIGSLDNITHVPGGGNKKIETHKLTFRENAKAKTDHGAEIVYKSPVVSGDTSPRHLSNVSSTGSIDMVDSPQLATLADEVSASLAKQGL

Binder | binding result
B1 | binds
B2 | binds
B3 | binds
B4 | binds
B5 | binds
B6 | binds
B7 | binds
B8 | binds
B9 | binds
B10 | binds
B11 | binds
B12 | binds
B13 | binds
